Consider 1 substance from publication PMC9910054.

For this assay, the target named is Mycobacterium tuberculosis chorismate mutase variant V55D (Mycobacterium tuberculosis). The assay can be described thus: crystal structure; sitting drop vapor diffusion, 20 °C; protein 44 mg/mL in 20 mM Bis Tris propane, pH 7.5, 150 mM NaCl; reservoir 0.2 M zinc acetate dihydrate, 10% w/v PEG 3000, 0.1 M sodium acetate, pH 4.5; space group P22(1)2(1); 2.1 Å.

With “Mycobacterium tuberculosis chorismate mutase variant V55D (enzyme)”, the stoichiometry N (in general, the number of molecules, sites or subunits per partner or assembly) was determined as 2.
